Source: the supplement of paper PMC10567573

B1: DYRK1B (parent)
chain: RFQDLVLRMLEYEPAARISPLGAL
B2: HSP90AB1 (parent)
chain: EADKNDKAVKDLVVLLFETALLSS

Variants of: B1
Assay: protein stability index of a GFP-peptide fusion (GPS, HEK-293T) (PSI 1-6); higher = more stable
Conditions: c terminus: a fixed tail appended
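Note: lentivirally expressed fusions sorted by FACS into six bins by GFP to DsRed ratio, PSI derived from sequencing read proportions per bin multiplied by bin number.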

Q: For NFQDLVLRMLEYEPAARISPLGAL [R1N], which protein stability index is on record?
A: The protein stability index was 2.94.

Q: Which protein stability index does the source give for TFQDLVLRMLEYEPAARISPLGAL [R1T] here?
A: The protein stability index was 2.57.

Q: For KFQDLVLRMLEYEPAARISPLGAL [R1K], which protein stability index is on record?
A: Its protein stability index is 2.19.

Q: For YFQDLVLRMLEYEPAARISPLGAL [R1Y], which protein stability index is on record?
A: Its protein stability index is 2.47.

Q: Which protein stability index does the source give for MFQDLVLRMLEYEPAARISPLGAL [R1M] here?
A: The protein stability index was 3.36.

Q: For GFQDLVLRMLEYEPAARISPLGAL [R1G], which protein stability index is on record?
A: The protein stability index was 1.58.

Q: With SFQDLVLRMLEYEPAARISPLGAL [R1S] as the variant, how does the protein stability index read?
A: Its protein stability index is 4.75.

Q: For FFQDLVLRMLEYEPAARISPLGAL [R1F], which protein stability index is on record?
A: Its protein stability index is 3.52.

Q: Which protein stability index does the source give for WFQDLVLRMLEYEPAARISPLGAL [R1W] here?
A: Its protein stability index is 3.

Q: With HFQDLVLRMLEYEPAARISPLGAL [R1H] as the variant, how does the protein stability index read?
A: The protein stability index was 2.31.

Q: For PFQDLVLRMLEYEPAARISPLGAL [R1P], which protein stability index is on record?
A: The protein stability index was 3.11.

Q: With DFQDLVLRMLEYEPAARISPLGAL [R1D] as the variant, how does the protein stability index read?
A: The protein stability index was 1.54.

Q: Which protein stability index does the source give for RFPDLVLRMLEYEPAARISPLGAL [Q3P] here?
A: The protein stability index was 2.05.

Q: For RFTDLVLRMLEYEPAARISPLGAL [Q3T], which protein stability index is on record?
A: The protein stability index was 3.41.

Q: Which protein stability index does the source give for RFVDLVLRMLEYEPAARISPLGAL [Q3V] here?
A: Its protein stability index is 4.49.

Q: With RFDDLVLRMLEYEPAARISPLGAL [Q3D] as the variant, how does the protein stability index read?
A: The protein stability index was 1.82.

Q: For RFNDLVLRMLEYEPAARISPLGAL [Q3N], which protein stability index is on record?
A: The protein stability index was 2.28.

Q: Which protein stability index does the source give for RFEDLVLRMLEYEPAARISPLGAL [Q3E] here?
A: The protein stability index was 2.19.

Q: With RFHDLVLRMLEYEPAARISPLGAL [Q3H] as the variant, how does the protein stability index read?
A: The protein stability index was 1.95.

Q: With RFSDLVLRMLEYEPAARISPLGAL [Q3S] as the variant, how does the protein stability index read?
A: Its protein stability index is 2.84.

Q: Which protein stability index does the source give for RFIDLVLRMLEYEPAARISPLGAL [Q3I] here?
A: The protein stability index was 2.91.

Q: For RFRDLVLRMLEYEPAARISPLGAL [Q3R], which protein stability index is on record?
A: The protein stability index was 1.19.

Q: Which protein stability index does the source give for RFKDLVLRMLEYEPAARISPLGAL [Q3K] here?
A: Its protein stability index is 2.03.

Q: With RWQDLVLRMLEYEPAARISPLGAL [F2W] as the variant, how does the protein stability index read?
A: Its protein stability index is 1.39.

Q: Which protein stability index does the source give for RVQDLVLRMLEYEPAARISPLGAL [F2V] here?
A: Its protein stability index is 3.5.

Q: For RKQDLVLRMLEYEPAARISPLGAL [F2K], which protein stability index is on record?
A: Its protein stability index is 2.15.

Q: For RDQDLVLRMLEYEPAARISPLGAL [F2D], which protein stability index is on record?
A: The protein stability index was 2.38.

Q: Which protein stability index does the source give for RGQDLVLRMLEYEPAARISPLGAL [F2G] here?
A: Its protein stability index is 2.18.

Q: For RTQDLVLRMLEYEPAARISPLGAL [F2T], which protein stability index is on record?
A: The protein stability index was 2.42.

Q: Which protein stability index does the source give for RMQDLVLRMLEYEPAARISPLGAL [F2M] here?
A: Its protein stability index is 3.25.

Q: Which protein stability index does the source give for RRQDLVLRMLEYEPAARISPLGAL [F2R] here?
A: The protein stability index was 2.38.

Q: With RPQDLVLRMLEYEPAARISPLGAL [F2P] as the variant, how does the protein stability index read?
A: Its protein stability index is 1.76.

Q: For RCQDLVLRMLEYEPAARISPLGAL [F2C], which protein stability index is on record?
A: Its protein stability index is 2.36.

Q: For RQQDLVLRMLEYEPAARISPLGAL [F2Q], which protein stability index is on record?
A: Its protein stability index is 3.35.

Q: With REQDLVLRMLEYEPAARISPLGAL [F2E] as the variant, how does the protein stability index read?
A: Its protein stability index is 3.27.

Q: For RHQDLVLRMLEYEPAARISPLGAL [F2H], which protein stability index is on record?
A: The protein stability index was 2.53.

Q: For RYQDLVLRMLEYEPAARISPLGAL [F2Y], which protein stability index is on record?
A: The protein stability index was 3.05.

Q: For RNQDLVLRMLEYEPAARISPLGAL [F2N], which protein stability index is on record?
A: The protein stability index was 2.14.

Variants of: B2
Assay: as above
Conditions: c terminus: a fixed tail appended

Q: For EADKFDKAVKDLVVLLFETALLSS [N5F], which protein stability index is on record?
A: Its protein stability index is 1.64.

Q: Which protein stability index does the source give for EADKWDKAVKDLVVLLFETALLSS [N5W] here?
A: Its protein stability index is 2.28.

Q: With EADKPDKAVKDLVVLLFETALLSS [N5P] as the variant, how does the protein stability index read?
A: Its protein stability index is 1.59.

Q: For EADKNDKAVKDLVVLGFETALLSS [L16G], which protein stability index is on record?
A: The protein stability index was 4.18.

Q: For EADKNDKAVKDLVVLFFETALLSS [L16F], which protein stability index is on record?
A: Its protein stability index is 1.69.

Q: With EADKNDKAVKDLVVLHFETALLSS [L16H] as the variant, how does the protein stability index read?
A: Its protein stability index is 3.34.

Q: Which protein stability index does the source give for GADKNDKAVKDLVVLLFETALLSS [E1G] here?
A: Its protein stability index is 2.37.

Q: For SADKNDKAVKDLVVLLFETALLSS [E1S], which protein stability index is on record?
A: The protein stability index was 1.78.

Q: With NADKNDKAVKDLVVLLFETALLSS [E1N] as the variant, how does the protein stability index read?
A: The protein stability index was 1.89.
